{"source": "the DeepSol protein solubility set"}
{"experiment": "soluble on expression in E. coli; label from the status in PepcDB or PDB records"}
{"sequence": "GPGSMINLPDMWTAEQRRQHVAEMYRNKGLICPDYFLKNECPRSSSCSYIHIRNGETRKVPLSVCHFYAKRACLRDKCVFFHGTQAQLDQLHAMGAQTYRPQDYMAFAIPPPELLGTDQNVAPPVVTMPMPVPAPLVNNTMPISKPATNSPLLLLPIDASAATPFSMYWSSSPCQHRSPLSPAPIPGLAEPRPPAVSHPYTVFSFFQ", "soluble on expression in E. coli": "not soluble"}
{"sequence": "MSESAFKDCFSTDVSADTRLFHFLARDYIVQEGQQPSWLFYLTRGRARLYATLANGRVSLIDFFAAPCFIGEIELIDKDHEPRAVQAIEECWCLALPMKHYRPLLLNDTLFLRKLCVTLSHKNYRNIVSLTQNQSFPLVNRLAAFILLSQEGDLYHEKHTQAAEYLGVSYRHLLYVLAQFIHDGLLIKRKDI", "soluble on expression in E. coli": "not soluble"}
{"sequence": "ITLNSEPKCINNIKSGQYERYDTNNTELNRVLGGGLVKGSITLISGAPGIGKSTLLLQICQDIALKYGKVLYVSGEESEHQIKMRGDRLGVTSANIYILAETNMESIERHVENIKPAFVIIDSIQTLYKDQITSAPGSVSQVRECANDIMRIAKTDNIPFFIVAHVTKQGELAGPRVLEHIVDTVLTFEGQRTEEFRILRTVKNRFGTTSEIGVFEMKEEGL", "soluble on expression in E. coli": "not soluble"}
{"sequence": "AEFQVTSNEIKTGEQLTTSHVFSGFGCEGGNTSPSLTWSGVPEGTKSFAVTVYDPDAPTGSGWWHWTVVNIPATVTYLPVDAGRRDGTKLPTGAVQGRNDFGYAGFGGACPPKGDKPHHYQFKVWALKTEKIPVDSNSSGALVGYMLNANKIATAEITPVYEIKLE", "soluble on expression in E. coli": "soluble"}
{"sequence": "MGSDKIHHHHHHMHFTPALKPGKLLKRYKRFLADVQLEDGSEITVHCPNTGSMRNCLFPGETLWFSTSSNTKRKYAHTWELMTTPTGALIGIHSGNANALVEEALNKGIITELTGYDSLRREVKYGDENSRIDILLECAQKTACYIEVKSCTLQENGQGYFPDAVSLRGQKHLRELMHMASLGHRAVLLFVVQHTDIMSVAPAAHIDPEYANLLKKSVLSGVEVLAYRCEISPSEIHLAQSCPVRV", "soluble on expression in E. coli": "not soluble"}
{"sequence": "VTPYEDLLRFVLETGTPKSDRTGTGTRSLFGQQMRYDLSAGFPLLTTKKVHFKSVAYELLWFLRGDSNIGWLHEHGVTIWDEWASDTGELGPIYGVQWRSWPAPSGEHIDQISAALDLLRTDPDSRRIIVSAWNVGEIERMALPPCHAFFQFYVADGRLSCQLYQRSADLFLGVPFNIASYALLTHMMAAQAGLSVGEFIWTGGDCHIYDNHVEQVRLQLSREPRPYPKLLLADRDSIFEYTYEDIVVKNYDPHPAIKAPVAV", "soluble on expression in E. coli": "not soluble"}
{"sequence": "MSLIVLKFGGSSIKYDFEEATNLALSLFEDDAVIVVVSAIKGITDKLILYSQTLDKTIATKIASEYVSFAKSHGIDPVILKPYLDELFNLPDLPEEALRDYILSLGEVLSAVIFSASIGGKFVPSWDIFEAEGNFGNAFIDIKSSKKKFKRVFEVLEEGYIPVIPGFTAGKDGYILTLGRGGSDYSGVAAGVLGKAKLVAIMSDVEGIYTADPKLVPSARLIPYVSYDEIIISSKHGMRALQWKAAELAKEYKIPVLFGRTRNWRMGTLMSERSSGMPLMTYKDGLLLVNVTEEIKYPIIAEGPFWKLYKVSQEEGIHLMRELHTKLFQPSFIQYSVYKSSENGQKTQEFNEKISIEQGENRKIYYSEEEVNLPGEGHHHHHH", "soluble on expression in E. coli": "soluble"}
{"sequence": "MLTLVGTYPPIRCGIATFNRDLREALLREGVPSQVAVVAHPEEVALPFPQEVVRVVAKEDREGYRALARLLRGPVILQHEYGLYGGKWGDYVLDLLEAQGPKLVVLHTLLQAPPPGLGEADLRYMQGLLRAMAERAQAFVALHPEGEGLLRALGVRIPVAHIPHGVPDLPRPPKEALKRALGLEGAFLLFTYGLLGPGKGLEFALKVLARVLPHNPRVRYLVAGRLHPNLERHEGRRYLERVREMAEALGVGEAFLLREGYLSEEELYRLAGAADLFLLPYPNLEQVSSGTLSYALALGKAVLSTPFRHARAALAAGRGVLLPLEEEAWAQAVLALAESPERLREMEERAYAYARDFTWPRVARAYRRLLEEVADVRPRVA", "soluble on expression in E. coli": "soluble"}
{"sequence": "MKGRVRIRGIYATALTSIFSSLSYEIVQQSVEISERFMQEINNLSADITIKDFEDDRGKIIVMGNGIIEDDLRNVFKYSFHWRSPVKLYSVIEIDESCTYANFKVEPCLREGIVIKPPYDGKIILSETKAVSKYAIVWRGKGITTFSEHIVDEEEKMRLLTLSLPLNRKGYNVKWRSNAKYVALNELKEDLERLILRYENREFRDQGEDFYLITLSLPDKLYLDEVRKNVVDTVKYHHMLKLSYNREVDSLEKDKKGSLGKLLEGLISDFLKIEHIKADGKVIYLRGGKVIEKEVNDNGYRIVLRREFEGNGILDGIGKKIEEGDYDIVEYNSDKWYQIHKYYSGIDNSLKGVYINISTPPELLRGKIRYLDLEIDIAIRDSEIALLDEDELNKKSIYMPSSLVNKAKEVVNYLINRIQQNKLS", "soluble on expression in E. coli": "not soluble"}
{"sequence": "KKDFTWNATVNFSSNQSKVLSLGAETQMLEGRPVGSASGSENVLIKKGYPLGLFYGLQMEGIRSNWHSDYNGIGSADSPWWYATEREMPYGFPSFADTNGDGKVDMSDRVVIGDVNPVFIGGLNTRLRWKFIELAMDFSWSYGNDIINGNVYNLMNNGDIRNKSAVYYKDAWFANNPTGTFTGPGAIDWSGYMWAASNSEMVEDGSFLKMNNLAVTFRMPKNILKAWKIKDLALTYTINNVFCLTNYSGYDPEVRSGSSVNNRILPGVDISAYPYARSHIFSLNFKY", "soluble on expression in E. coli": "not soluble"}
{"sequence": "MGSDKIHHHHHHMGNKTSQKVLLELLKDRDRWVSGNEIADSLGVTRETIWKNINLLKKRGHQIQSQKNLGYKYESSSKLDEVVINFYKNKSVDHVAVEEQVDSTQMYAKNYLATHQVEKAFAVISEQQTQGYGRRGRSFYSPKEQGLYFSIVIPKPTFEINQVGLITTGVAYVIAQTFKDFFPEREFKLKWVNDILMNRRKVAGIITEAITEVESASTQAFVIGVGINLTTPEFPEELQQKAGAIVAKNEPNIDRNLIAAQLINTIVDNWQNYLDGSFLSEYRRMSIVIGKPVTLQVGTKQVKGIATDINEYGNIVVKLDDGQVKAFNNGEITKVNLDW", "soluble on expression in E. coli": "not soluble"}
{"sequence": "MSEMTPREIVSELDQHIIGQADAKRAVAIALRNRWRRMQLQEPLRHEVTPKNILMIGPTGVGKTEIARRLAKLANAPFIKVEATKFTEVGYVGKEVDSIIRDLTDSAMKLVRQQEIAKNRARAEDVAEERILDALLPPAKNQWGEVENHDSHSSTRQAFRKKLREGQLDDKEIEIDVSAGVSMGVEIMAPPGMEEMTNQLQSLFQNLGSDKTKKRKMKIKDALKALIDDEAAKLINPEELKQKAIDAVEQNGIVFIDEIDKICKKGEYSGADVSREGVQRDLLPLVEGSTVSTKHGMVKTDHILFIASGAFQVARPSDLIPELQGRLPIRVELTALSAADFERILTEPHASLTEQYKALMATEGVNIAFTTDAVKKIAEAAFRVNEKTENIGARRLHTVMERLMDKISFSASDMNGQTVNIDAAYVADALGEVVENEDLSRFIL", "soluble on expression in E. coli": "soluble"}
{"sequence": "MNKIIISIGREFGSGGRRIGELLAKELEVPCYDRHLIEEAACRSGFETKELEEADEMKANRFLFKVPAKSNQYTGYGKPMNDTLFAIQSELIRKYADAGSCVIVGRCADKVLEKQEGLISVFIYAPLEARVEEIRRRYETDGEEALYLVRQADKIRRNYYNYYAKKKWGDRSSYDLMIDSSHFTDREVAAMIRAVSEERKAEWEENKFSTPQG", "soluble on expression in E. coli": "not soluble"}
{"sequence": "MSLWLPSEATVYLPPVPVSKVVSTDEYVARTNIYYHAGTSRLLAVGHPYFPIKKPNNNKILVPKVSGLQYRVFRIHLPDPNKFGFPDTSFYNPDTQRLVWACVGVEVGRGQPLGVGISGHPLLNKLDDTENASAYAANAGVDNRECISMDYKQTQLCLIGCKPPIGEHWGKGSPCTQVAVQPGDCPPLELINTVIQDGDMVDTGFGAMDFTTLQANKSEVPLDICTSICKYPDYIKMVSEPYGDSLFFYLRREQMFVRHLFNRAGTVGENVPDDLYIKGSGSTANLASSNYFPTPSGSMVTSDAQIFNKPYWLQRAQGHNNGICWGNQLFVTVVDTTRSTNMSLCAAISTSETTYKNTNFKEYLRHGEEYDLQFIFQLCKITLTADVMTYIHSMNSTILEDWNFGLQPPPGGTLEDTYRFVTSQAIACQKHTPPAPKEDPLKKYTFWEVNLKEKFSADLDQFPLGRKFLLQLGLKAKPKFTLGKRKATPTTSSTSTTAKRKKRKL", "soluble on expression in E. coli": "soluble"}
{"sequence": "MTKTEKDWFQRLIKLIKSDGRTMIEISKAAGCGQNYVQQMIKGGKRPSVDKLMALLNTLGNASAIYVITGFNISDEDLKLIALISSGDKKKIEALSLLLTEKKQ", "soluble on expression in E. coli": "not soluble"}
